Tested on: cultured PBMCs of the allergic donors
Assay: ELISPOT of IL-5 or IFNg production by cultured PBMCs of TG allergic donors in response to peptide
Type: cell-based, human
Conditions: for NTGA's containing at least one T cell epitope, Th+ (Col 2): NTGA number given = criterion met, TG allergic donors n=20; for No of PG+ & th+ peptides per NTGA / No of PP & Th+ peptides per NTGA: Table 6; for No of PG+ & th+ peptides per NTGA: PG+ peptides recognized by T cells of grass allergic donors (n=20); for No of PP & Th+ peptides per NTGA: PP peptides recognized by T cells of grass allergic donors (n=20); for # Th+: Table 7, peptides per NTGA recognized by T cells of grass allergic donors (n=20); for T cell reactivity of sequences contained in the protein: among top pan-pollen NTGA's ranked by number of PP peptides; for PG+ peptides recognized by grass allergic donors: n=20 grass allergic donors, PG+ peptides of the NTGA
Source text: Table 1 indicates for each of the 397 PG+ peptides in which non-grass pollen species a matching peptide with either less than 3, less than 2 or zero mismatches are found. The number of TG grass allergic donors (n=20) with an in vitro T cell response to the TG peptide sequence is also shown.
A set of 93 proteins from Timothy grass (TG) pollen and the assembly of 822 peptides (15 mers) predicted to promiscuously bind HLA class II molecules shown in Table 9 and the immune reactivity in allergic donors have been reported in PCT application WO 2013/119863. […] Immune reactivity was determined by the production of IL-5 or IFNg from cultured PBMCs of the allergic donors in response to stimulation with a peptide and IL-5 and IFNg were measured by ELISPOT as described in Oseroff C et al, 2010.
In short, T cell immune reactivity was determined using PBMCs isolated from study participants and stored in liquid nitrogen until further use. For experimental testing, PBMCs were thawed and expanded in vitro with TG pollen extract (50 μg/mL) or the peptide pool ([…]). The TG extract and peptide pools had each been previously titrated to determine optimal stimulation concentrations.
Cytokine production by cultured PBMCs in response to antigen stimulation was measured by ELISPOT. Cells (1×10^5 cells/well) were plated and incubated with peptide (10 μg/mL), the peptide pool (5 μg/mL), or the TG extract (50 μg/mL). Phytohaemagglutinin (10 μg/mL) and medium alone were used as positive and negative controls, respectively. Samples were considered to produce a cytokine if 100 spot-forming cells (SFCs)/10^6 PBMCs were detected, with P .05 and a stimulation index of 2 or more. Criteria for individual peptides were the same except that a minimum of 20 SFCs were required for a sample to be counted as positive.
Table 3 lists the 397 PG+ peptides and indicates for each non-grass pollen species whether a matching peptide with either less than 3, less than 2 or zero mismatches could be detected. The immune reactivity of the TG peptide was assessed as the number of TG grass allergic donors (n=20) having in vitro T cell response against the TG peptide.

B1: NTGA 27: Phl p wild type sequence, Table 2 (protein)
chain: MSAYCGKYKDELIKNAAYIGTPGKGILAADESTGTIGKRFASINVENVEDNRRALRELLFTTPGALQHISGVILFEETLYQSSKAGKPFVDILKENNVLPGIKVDKGTVELAGTDKETTTQGHDDLGKRCAKYYEAGARFAKWRAVLKIGPNEPSQLSIDQNAQGLARYAIICQENGLVPIVEPEILVDGPHDIERCAYVTEVVLAACYKALNDQHVLLEGSLLKPNMVTPGSDAKKVAPEVIAEYTVRTLQRTVPPAVPAIVFLSGGQSEEEATVNLNAMNKLQTKKPWFLSFSFGRALQQSTLKAWSGKEENVEKAQKAFLVRCKANSEATLGTYKGDATLGEGASESLHVKDYKY
modifications: Phleum Pratense
immune reactivity (SFC counts in ELISPOT) of highly conserved PG+ peptides derived from the NTGA: high immune reactivity
NTGA's containing at least one T cell epitope, Th+ (Col 2): 27
No of PG+ & th+ peptides per NTGA: 5
No of PP & Th+ peptides per NTGA: 4
# Th+: 0

B2: NTGA 53: Phl p wild type sequence, Table 2 (protein)
chain: MDRNPVAKNAGKFMTLAGVLDYAKASNISGILIGIEHAAYLATRGLDVVDAVSNALIKSGYDKETKQQVFIQSEDPPVLSAFKKFPKFNRVFEIEFDIRDVSKPSVVEIKEFANAVKLRRSSAAQVDGFYLTGFNAVVERLRDADIQVHVGVLKNEFMSLAFDYWADPMVEIATDTWSVLADGLVTEFPSTAAAYFRSPCSDIKRNMSYTIKPGEPGALVDMAAYGALPPAPPPAPVLEPADVHRQPLPLCPTEPMFRTFRCRLPPKETGKNAEYTANLAADG
modifications: Phleum Pratense
NTGA's containing at least one T cell epitope, Th+ (Col 2): 53
No of PG+ & th+ peptides per NTGA: 3
No of PP & Th+ peptides per NTGA: 1
# Th+: 3
T cell reactivity of sequences contained in the protein: highly T cell reactive sequences

B3: NTGA 1: Phl p (Timothy grass pollen) wild type sequence, Table 2 (protein)
chain: MAATIQSVKARQIFDSRGNPTVEVDVCCSDGTFARAAVPSGASTGVYEALELRDGGSDYLGKGVLKAVDNVNSIIGPALIGKDPTEQTELDNFMVHQLDGTKNEWGWCKQKLGANAILAVSLAVCKAGALVKKIPLYQHIANLAGNKQLVLPVPAFNVINGGSHAGNKLAMQEFMILPTGASSFKEAMKMGVEVYHNLKSVIKKKYGQDATNVGDEGGFAPNIQENKEGLELLKTAIEKAGYTGKVVIGMDVAASEFYGEKDQTYDLNFKEENNDGSQKISGDSLKNVYKSFVSEYPIVSIEDPFDQDDWVHYAKMTEEIGEQVQIVGDDLLVTNPTRVAKAIAEKSCNALLLKVNQIGSVTESIEAVKMSKRAGWGVMTSHRSGETEDTFIADLAVGLSTGQIKTGAPCRSERLAKYNQLLRIEEELGAAAVYAGLKFRAPVEPY
modifications: Phleum Pratense
NTGA's containing at least one T cell epitope, Th+ (Col 2): 1
No of PG+ & th+ peptides per NTGA: 5
No of PP & Th+ peptides per NTGA: 4
# Th+: 0

B4: NTGA 2: Phl p wild type sequence, Table 2 (protein)
chain: MASPALISDTDQWKALQAHVGAIHKTHLRDLMADADRCKALTAEFEGVFLDYSRQQATTETVDKLFKLAEAAKLKEKIAKMFNGDKINSTENRSVLHVALRAPRDAVINSDGVNVVPEVWAVIDKIKQFSETFRSGSWVGATGKPLTNVVSVGIGGSFLGPLFVHTALQTDPEAAESAKGRQLRFLANVDPVDVARSIKDLDPETTLVVVVSKTFTTAETMLNARTIKEWIVSSLGPQAVSKHMIAVSTNLKLVKEFGIDPNNAFAFWDWVGGRYSVCSAVGVLPLSLQYGFPIVQRFLEGASSIDNHFRTASFEKNIPVLLGLLSVWNVSFLGYPARAILPYSQALEKLAPHIQQLSMESNGKGVSIDGVPLPYEAGEIDFGEPGTNGQHSFYQLIHQGRVIPCDFIGVIKSQQPVYLKGETSNHDELMSNFFAQPDALASRKTPAPLRSENVSENLIPHKTFKGNRPSLSFLLSSLSAYEIGQLLAIYEHRIAVQGFIWGINSFDQWGVELGKSLASQVRKQLHASRMEGKPVEGFNPSSASLLARYLAVEPSTPYDTTVLPKV
modifications: Phleum Pratense
immune reactivity (SFC counts in ELISPOT) of highly conserved PG+ peptides derived from the NTGA: high immune reactivity
NTGA's containing at least one T cell epitope, Th+ (Col 2): 2
No of PG+ & th+ peptides per NTGA: 15
No of PP & Th+ peptides per NTGA: 12
# Th+: 5
T cell reactivity of sequences contained in the protein: highly T cell reactive sequences
PG+ peptides recognized by grass allergic donors: two

B5: NTGA 24: Phl p wild type sequence, Table 2 (protein)
chain: MATKRSVGTLGEADLKGKKVFLRADLNVPLDDAQKITDDTRIRASIPTIKFLLEKGAKVILASHLGRPKGVTPKFSLKPLVPRLSELLGVEVVMANDCIGEEVEKLAAALPEGGVLLLENVRFYKEEEKNDPEFAKKLASVADLYVNDAFGTAHRAHASTEGVTKFLRPSVAGFLMQKELDYLVGAVANPKKPFAAIVGGSKVSSKIGVIESLLAKVDILILGGGMIFTFYKAQGKAVGKSLVEEDKLELATSLIETAKAKGVSLLLPTDVVVADKFAPDAESKTVSADAIPDGWMGLDVGPDSIKTFSEALDTTKTVIWNGPMGVFEFEKFAAGTDAIAKQLADLTGKGVTTIIGGGDSVAAVEKAGLADKMSHISTGGGASLELLEGKPLPGVLALDEA
modifications: Phleum Pratense
immune reactivity (SFC counts in ELISPOT) of highly conserved PG+ peptides derived from the NTGA: high immune reactivity
NTGA's containing at least one T cell epitope, Th+ (Col 2): 24
No of PG+ & th+ peptides per NTGA: 11
No of PP & Th+ peptides per NTGA: 8
# Th+: 2
PG+ peptides recognized by grass allergic donors: two

B6: NTGA 7: Phl p wild type sequence, Table 2 (protein)
chain: MAFEKIKVANPIVEMGDEMTRVFWQSIKEKLIFPFLDLDIKYYDLGVLHRDATDDKVTVEAAEATLKYNVAIKCATITPDEDRVKEFNLKQMWRSPNGTIRNIINGTVFREPIICKNVPKLVPGWTKPICIGRHAFGDQYRATDAVLKGPGKLRLVFEGKDETVDLEVFNFTGAGGVALAMYNTDESIQGFAEASMAIAYEKKWPLYLSTKNTILKKYDGRFKDIFQAVYEADWKSKYEAAGIWYEHRLIDDMVAYALKSEGGYVWACKNYDGDVQSDFLAQGFGSLGLMTSVLMCPDGKTIEAEAAHGTVTRHFRVHQKGGETSTNSIASIFAWTRGLAHRAKLDDNARLLDFTQKLEDACVGTVESGKMTKDLALLVHGSSKVTRGDYLNTEEFIDAVAAELQSRLAAN
modifications: Phleum Pratense
immune reactivity (SFC counts in ELISPOT) of highly conserved PG+ peptides derived from the NTGA: high immune reactivity
NTGA's containing at least one T cell epitope, Th+ (Col 2): 7
No of PG+ & th+ peptides per NTGA: 9
No of PP & Th+ peptides per NTGA: 6
# Th+: 4
T cell reactivity of sequences contained in the protein: highly T cell reactive sequences
PG+ peptides recognized by grass allergic donors: two

B7: NTGA 89: Phl p wild type sequence, Table 2 (protein)
chain: MSAADKVKPAASPAAEDPAAIAGNISYHAHYSPHFSPLAFGPEPAYFATAESVRDHLLQRWNDTYLHFHKTDPKQTYYLSMEYLQGRALTNAVGNLGITGAYAEAVKKFGYELEALAGQERDMALGNGGLGRLAACFLDSMATLNLPAWGYGLRYRYGLFKQRIAKEGQEEIAEDWLEKFSPWEIVRHDVVYPVRFFGHVEILPDGRRKSAGGEVLNALAYDVPIPGYKTKNAISLRLWDAKASAEDFNLFQFNDGQYESAAQLHSRAQQICAVLYPGDATEEGKLLRLKQQFFLCSASLQDIIFRFKERKSDRVSGKWSEFPSKVAVQMNDTHPTLAIPELMRLLMDEEGLGWDEAWDVTNKTVAYTNHTVLPEALEKWSQSVMRKLLPRQMEIIEEIDKRFREMVISTRKDMEGKLDSMSVLDNSPQKPVVRMANLCVVSAHTVNGVAELHSNILKEELFADYVSIWPKKFQNKTNGITPRRWLRFCNPELSEIVTKWLKTDQWTSNLDLLTGLRKFADDEKLHAEWAAAKLASKKRLAKHVLDATGVTIDPTSLFDIQIKRIHEYKRQLMNILGAVYRYKKLKEMSAEEKQKVTPRTVMVGGKAFATYTNAKRIVKLVNDVGAVVNNDPDVNKYLKVVFIPNYNVSVAEVLIPGSELSQHISTAGMEASGTSNMKFSLNGCVIIGTLDGANVEIREEVGEDNFFLFGAKADQVAGLRKDRENGLFKPDPRFEEAKQYIRSGTFGTYDYTPLLDSLEGNSGFGRGDYFLVGYDFPSYIDAQARVDEAYKDKKRWIKMSILNTAGSGKFSSDRTIDQYAKEIWGITANPVP
modifications: Phleum Pratense
NTGA's containing at least one T cell epitope, Th+ (Col 2): 89
No of PG+ & th+ peptides per NTGA: 13
No of PP & Th+ peptides per NTGA: 0
# Th+: 4
PG+ peptides recognized by grass allergic donors: two

— US20160287696A1, “PAN POLLEN IMMUNOGENS AND METHODS AND USES FOR IMMUNE RESPONSE MODULATION” (LA JOLLA INSTITUTE FOR ALLERGY AND IMMUNOLOGY, priority 2013, published 2016)
